# “Also recorded” adds a separate entry of the source. Like-named read-outs stand apart in the source and are kept apart here.
# Legend:
# CCL18_HUMAN [1] = molecular target: T1, CCL18_HUMAN (Homo sapiens, UniProt P55774); settings: read-out: Kd, CCL18_HUMAN, previously described evasins; data obtained from publications [20-22,32]; cited from earlier work
# T1 sequence (P55774 21-89): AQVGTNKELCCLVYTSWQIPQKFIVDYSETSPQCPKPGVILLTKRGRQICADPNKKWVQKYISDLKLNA
# CCL4_HUMAN [2] = molecular target: T2, CCL4_HUMAN (Homo sapiens, UniProt P13236); settings: read-out: Kd, CCL4_HUMAN, previously described evasins; data obtained from publications [20-22,32]; cited from earlier work
# T2 sequence (P13236 24-92): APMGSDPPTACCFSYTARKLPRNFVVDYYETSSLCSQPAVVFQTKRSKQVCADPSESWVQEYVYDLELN
# chemokines = settings: list of chemokines bound, from the literature [18,20-22]; listed as EVA1_RHISA; cited from earlier work
# CCL3L1_HUMAN [3] = molecular target: T3, CCL3L1_HUMAN (Homo sapiens, UniProt P16619); settings: read-out: Kd, CCL3L1_HUMAN, previously described evasins; data obtained from publications [20-22,32]; cited from earlier work
# CCL8_HUMAN = molecular target: T4, CCL8_HUMAN (Homo sapiens, UniProt P80075); assay: Biolayer interferometry (BLI) binding
# T4 sequence (P80075 24-99): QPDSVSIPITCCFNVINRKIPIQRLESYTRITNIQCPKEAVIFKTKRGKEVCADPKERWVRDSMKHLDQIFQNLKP
# In short: (§1)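 His-tagged purified tick CKBPs were loaded on Ni-NTA sensors and screened against chemokine at 300 nM. Chemokines that bound in this screen were retested at several concentrations. Association, equilibrium and dissociation curves were fitted to give Kd in molar units.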
# CCL3_HUMAN [4] = molecular target: T5, CCL3_HUMAN (Homo sapiens, UniProt P10147); settings: read-out: Kd, CCL3_HUMAN, previously described evasins; data obtained from publications [20-22,32]; cited from earlier work
# T5 sequence (P10147 24-92): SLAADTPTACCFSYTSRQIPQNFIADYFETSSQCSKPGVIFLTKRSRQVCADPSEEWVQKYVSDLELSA
# CCL5_HUMAN [5] = molecular target: T6, CCL5_HUMAN (Homo sapiens, UniProt P13501); assay: Yeast surface display (YSD) FACS binding
# T6 sequence (P13501 24-91): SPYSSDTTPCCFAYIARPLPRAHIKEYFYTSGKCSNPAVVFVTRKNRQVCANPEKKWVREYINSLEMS
# In short: (§2)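 Yeast clones displaying tick peptides were re-tested by FACS with labelled chemokine. Binding = % of peptide-expressing yeast above a background threshold set with streptavidin-Alexa647 alone; the mean percent shift was used where several clones were isolated. Confirmed binding ("YES") required >3-fold over background mean fluorescence intensity.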
# CCL18_HUMAN [6] = molecular target: T1, CCL18_HUMAN; assay: Yeast surface display (YSD) FACS binding
# In short: as §2
# CCL11_HUMAN [7] = molecular target: T7, CCL11_HUMAN (Homo sapiens, UniProt P51671); assay: Yeast surface display (YSD) FACS binding
# In short: as §2
# CCL1_HUMAN = molecular target: T8, CCL1_HUMAN (Homo sapiens, UniProt P22362); assay: Yeast surface display (YSD) FACS binding
# T8 sequence (P22362 24-96): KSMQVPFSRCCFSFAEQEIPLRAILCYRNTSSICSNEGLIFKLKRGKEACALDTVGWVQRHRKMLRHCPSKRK
# In short: as §2
# CXCL12_HUMAN = CXCL12_HUMAN (Homo sapiens, UniProt P48061); assay: Yeast surface display (YSD) FACS binding; settings: yeast surface display
# In short: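 Yeast clones displaying tick peptides were re-tested by FACS with labelled chemokine detected by streptavidin-Alexa conjugate. Binding was scored as % of peptide-expressing cells above a background set with streptavidin-Alexa alone, averaged over independent clones. In the screen tables, >3-fold over background mean fluorescence intensity was scored as binding.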
# CCL3_HUMAN [8] = molecular target: T5, CCL3_HUMAN; assay: Yeast surface display (YSD) FACS binding
# In short: as §2
# CCL19_HUMAN [9] = molecular target: T9, CCL19_HUMAN (Homo sapiens, UniProt Q99731); assay: Yeast surface display (YSD) FACS binding
# T9 sequence (Q99731 22-98): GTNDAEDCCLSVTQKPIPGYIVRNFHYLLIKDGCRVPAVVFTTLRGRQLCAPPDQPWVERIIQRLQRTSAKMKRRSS
# In short: as §2
# CCL17_HUMAN = molecular target: T10, CCL17_HUMAN (Homo sapiens, UniProt Q92583); assay: Yeast surface display (YSD) FACS binding
# T10 sequence (Q92583 24-94): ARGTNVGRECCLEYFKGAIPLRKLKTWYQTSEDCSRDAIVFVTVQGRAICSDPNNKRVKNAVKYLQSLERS
# In short: as §2
# CCL5_HUMAN [10] = molecular target: T6, CCL5_HUMAN; assay: Biolayer interferometry (BLI) binding
# In short: as §1
# CCL19_HUMAN [11] = molecular target: T9, CCL19_HUMAN; assay: Biolayer interferometry (BLI) binding
# In short: as §1
# CCL13_HUMAN = CCL13_HUMAN (Homo sapiens, UniProt Q99616); assay: Biolayer interferometry (BLI) binding
# In short: as §1
# CCL18_HUMAN [12] = molecular target: T1, CCL18_HUMAN; assay: Biolayer interferometry (BLI) binding
# In short: as §1
# CCL11_HUMAN [13] = molecular target: T7, CCL11_HUMAN; assay: Biolayer interferometry (BLI) binding
# In short: as §1
# CCL27_HUMAN = molecular target: T11, CCL27_HUMAN (Homo sapiens, UniProt Q9Y4X3); assay: Biolayer interferometry (BLI) binding
# T11 sequence (Q9Y4X3 25-112): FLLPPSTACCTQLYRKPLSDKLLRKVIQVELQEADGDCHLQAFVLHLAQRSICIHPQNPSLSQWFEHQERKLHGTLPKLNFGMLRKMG
# In short: as §1
# CCL7_HUMAN = CCL7_HUMAN (Homo sapiens, UniProt P80098); assay: Biolayer interferometry (BLI) binding
# In short: as §1
# CCL14_HUMAN = molecular target: T12, CCL14_HUMAN (Homo sapiens, UniProt Q16627); assay: Biolayer interferometry (BLI) binding
# T12 sequence (Q16627 20-93): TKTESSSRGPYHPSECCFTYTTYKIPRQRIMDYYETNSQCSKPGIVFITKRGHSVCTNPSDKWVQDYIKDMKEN
# In short: as §1
# CCL3L1_HUMAN [14] = molecular target: T3, CCL3L1_HUMAN; assay: Biolayer interferometry (BLI) binding
# In short: as §1
# CCL15_HUMAN = molecular target: T13, CCL15_HUMAN (Homo sapiens, UniProt Q16663); assay: Biolayer interferometry (BLI) binding
# T13 sequence (Q16663 22-113): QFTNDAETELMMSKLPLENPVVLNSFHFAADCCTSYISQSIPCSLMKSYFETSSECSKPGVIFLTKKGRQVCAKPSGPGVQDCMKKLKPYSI
# In short: as §1
# CCL22_HUMAN = molecular target: T14, CCL22_HUMAN (Homo sapiens, UniProt O00626); assay: Biolayer interferometry (BLI) binding
# T14 sequence (O00626 25-93): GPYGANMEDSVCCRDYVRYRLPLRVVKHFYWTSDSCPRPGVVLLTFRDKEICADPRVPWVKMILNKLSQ
# In short: as §1
# CCL24_HUMAN = molecular target: T15, CCL24_HUMAN (Homo sapiens, UniProt O00175); assay: Biolayer interferometry (BLI) binding
# T15 sequence (O00175 27-119): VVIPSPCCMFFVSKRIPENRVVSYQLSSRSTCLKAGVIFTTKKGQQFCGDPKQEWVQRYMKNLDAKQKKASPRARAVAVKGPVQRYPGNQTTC
# In short: as §1
# CCL4_HUMAN [15] = molecular target: T2, CCL4_HUMAN; assay: Biolayer interferometry (BLI) binding
# In short: as §1
# CCL23_HUMAN = molecular target: T16, CCL23_HUMAN (Homo sapiens, UniProt P55773); assay: Biolayer interferometry (BLI) binding
# T16 sequence (P55773 22-120): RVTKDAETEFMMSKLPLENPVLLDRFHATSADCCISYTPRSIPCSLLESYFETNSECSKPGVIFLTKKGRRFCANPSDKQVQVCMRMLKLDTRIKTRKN
# In short: as §1
# CCL4L1_HUMAN = molecular target: T17, CCL4L1_HUMAN (Homo sapiens, UniProt Q8NHW4); assay: Biolayer interferometry (BLI) binding
# T17 sequence (Q8NHW4 24-92): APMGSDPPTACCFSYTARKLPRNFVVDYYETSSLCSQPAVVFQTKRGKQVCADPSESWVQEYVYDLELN
# In short: as §1
# T7 sequence (P51671 24-97): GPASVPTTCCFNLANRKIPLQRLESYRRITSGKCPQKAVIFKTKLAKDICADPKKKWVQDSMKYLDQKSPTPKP
# T3 sequence (P16619 24-93): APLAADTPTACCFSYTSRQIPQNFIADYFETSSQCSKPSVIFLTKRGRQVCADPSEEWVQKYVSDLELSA
# Sequence of CXCL12_HUMAN (P48061 22-93): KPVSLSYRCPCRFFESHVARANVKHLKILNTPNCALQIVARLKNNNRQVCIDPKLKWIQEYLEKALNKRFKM
# Sequence of CCL7_HUMAN (P80098 24-99): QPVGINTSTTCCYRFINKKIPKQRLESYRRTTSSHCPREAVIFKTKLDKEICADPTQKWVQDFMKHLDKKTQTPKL
# Sequence of CCL13_HUMAN (Q99616 17-98): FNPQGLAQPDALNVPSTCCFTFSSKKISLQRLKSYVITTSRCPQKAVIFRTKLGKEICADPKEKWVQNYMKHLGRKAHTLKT
molecule,measurement,setting,value
"EVASIN1: previously described tick CKBP evasin 1, from Rhipicephalus sanguineus (protein, listed as Rhipicephalus sanguineus) EDDEDYGDLGGCPFLVAENKTGYPTIVACKQDCNGTTETAPNGTRCFSIGDEGLRRMTANLPYDCPLGQCSNGDCIPKETYEVCYRRNWRDKKN",Kd,CCL18_HUMAN [1],3 nM
same,Kd,CCL4_HUMAN [2],0.5 nM
same,Previously described chemokine binding,chemokines,"CCL3, CCL3L1, CCL4, CCL4L1, CCL14 and CCL18 but not CCL8; also recorded: CCL3, CCL3L1,; also recorded: CCL4, CCL18"
same,Kd,CCL3L1_HUMAN [3],0.05 nM
same,CCL8 binding (bound or not),CCL8_HUMAN; 300 nM or 600 nM CCL8,did not
same,Kd,CCL3_HUMAN [4],0.1 nM
"P1029_AMBPA: tick CKBP, Amblyomma parvum; named P1209_AMBPA in Table 1 (protein, listed as Amblyomma parvum) KTDTKNAAGELPPKVAIPGCEDPATTKAPLPDDPRYYGVTIDKDGCQRKVLGSSQRQQRQVQNGRKPGRKGRGRRPVFVDLKLTVDCKRKCNGTYSQLPDGEPCLVCDGEPYGRHRTIKGGCYQGNCSSGQCHRGERKVNCYIPKNITNNVLNSVNLAE","Binding to CCL5_HUMAN, YSD",CCL5_HUMAN [5],YES (An arbitrary threshold of >3 fold over background mean fluorescence intensity was chosen to describe confirmed re-tests. Where binding was detected data are indicated as “YES”)
same,"Binding to CCL18_HUMAN, YSD",CCL18_HUMAN [6],YES (An arbitrary threshold of >3 fold over background mean fluorescence intensity was chosen to describe confirmed re-tests. Where binding was detected data are indicated as “YES”)
same,"Binding to CCL11_HUMAN, YSD",CCL11_HUMAN [7],YES (An arbitrary threshold of >3 fold over background mean fluorescence intensity was chosen to describe confirmed re-tests. Where binding was detected data are indicated as “YES”)
same,"Binding to CCL1_HUMAN, YSD",CCL1_HUMAN,YES (An arbitrary threshold of >3 fold over background mean fluorescence intensity was chosen to describe confirmed re-tests. Where binding was detected data are indicated as “YES”)
same,"Binding to CXCL12_HUMAN, YSD",CXCL12_HUMAN,YES (An arbitrary threshold of >3 fold over background mean fluorescence intensity was chosen to describe confirmed re-tests. Where binding was detected data are indicated as “YES”)
"P1005_AMBMA: tick CKBP, Amblyomma maculatum (protein, listed as Amblyomma maculatum) EKDTPKNIPGCGDTGTTAAPPADNPKHFAVYTDKHGCTIKVIGTWMTKEDHSRLPVSLRRVRASSGRVMLPASCQKICNDTVKNFPEGTPCRLVTGDPIKGKNHIKDGCIRGYCSSGVCVSDKRNISCYVPPN","Binding to CCL5_HUMAN, YSD",CCL5_HUMAN [5],YES (An arbitrary threshold of >3 fold over background mean fluorescence intensity was chosen to describe confirmed re-tests. Where binding was detected data are indicated as “YES”)
same,"Binding to CCL3_HUMAN, YSD",CCL3_HUMAN [8],YES (An arbitrary threshold of >3 fold over background mean fluorescence intensity was chosen to describe confirmed re-tests. Where binding was detected data are indicated as “YES”)
same,"Binding to CCL19_HUMAN, YSD",CCL19_HUMAN [9],YES (An arbitrary threshold of >3 fold over background mean fluorescence intensity was chosen to describe confirmed re-tests. Where binding was detected data are indicated as “YES”)
same,"Binding to CCL17_HUMAN, YSD",CCL17_HUMAN,YES (An arbitrary threshold of >3 fold over background mean fluorescence intensity was chosen to describe confirmed re-tests. Where binding was detected data are indicated as “YES”)
same,"Binding to CCL11_HUMAN, YSD",CCL11_HUMAN [7],YES (An arbitrary threshold of >3 fold over background mean fluorescence intensity was chosen to describe confirmed re-tests. Where binding was detected data are indicated as “YES”)
same,"Binding to CCL1_HUMAN, YSD",CCL1_HUMAN,YES (An arbitrary threshold of >3 fold over background mean fluorescence intensity was chosen to describe confirmed re-tests. Where binding was detected data are indicated as “YES”)
"P991_AMBCA: tick CKBP, Amblyomma cajennense (protein, Amblyomma cajennense) ENGEGTTQPDYDNSTDYYNYEDFKCTCPAPHLNNTNGTVMKPIGCYYTCNVTRCTAPDTYPCYNLTEHQAKNLTTSPTTLCAVGNCDHGICVPNGTKELCFKAPNLEE",Kd,CCL5_HUMAN [10],1.47 nM
same,Kd,"CCL8_HUMAN; read-out: Kd, CCL8_HUMAN",8.79 nM
same,Kd,CCL19_HUMAN [11],14.4 nM
same,Kd,CCL13_HUMAN,0.419 nM
same,Kd,CCL18_HUMAN [12],0.209 nM
same,Kd,CCL11_HUMAN [13],3.43 nM
same,Kd,CCL27_HUMAN,38.9 nM
same,Kd,CCL7_HUMAN,0.514 nM
same,Kd,CCL14_HUMAN,0.43 nM
same,Kd,CCL3L1_HUMAN [14],1.4 nM
same,Kd,CCL15_HUMAN,159 nM
same,Kd,CCL22_HUMAN,3.97 nM
same,Kd,CCL24_HUMAN,6.54 nM
same,Kd,CCL4_HUMAN [15],5.82 nM
same,Kd,CCL23_HUMAN,5.58 nM
same,Kd,CCL4L1_HUMAN,0.827 nM

# Reference: patent US20200247855A1, “THERAPY AND DIAGNOSTICS” (OXFORD UNIVERSITY INNOVATION LIMITED, priority 2017, published 2020)
